Test results published in PMC7566517.

Molecular target: HER3 on HER3-overexpressing HEK293 cells (human) (UniProt P21860)
Assay: flow cytometry on cells; stable HEK293 cells expressing HER3 or HER4; purified NRG-1 mutants at 1 and 10 μg/mL, 4 °C, 1 h; goat antihuman Alexa Fluor 647

HER3 on HER3-overexpressing HEK293 cells (human), sequence (P21860 20-1342): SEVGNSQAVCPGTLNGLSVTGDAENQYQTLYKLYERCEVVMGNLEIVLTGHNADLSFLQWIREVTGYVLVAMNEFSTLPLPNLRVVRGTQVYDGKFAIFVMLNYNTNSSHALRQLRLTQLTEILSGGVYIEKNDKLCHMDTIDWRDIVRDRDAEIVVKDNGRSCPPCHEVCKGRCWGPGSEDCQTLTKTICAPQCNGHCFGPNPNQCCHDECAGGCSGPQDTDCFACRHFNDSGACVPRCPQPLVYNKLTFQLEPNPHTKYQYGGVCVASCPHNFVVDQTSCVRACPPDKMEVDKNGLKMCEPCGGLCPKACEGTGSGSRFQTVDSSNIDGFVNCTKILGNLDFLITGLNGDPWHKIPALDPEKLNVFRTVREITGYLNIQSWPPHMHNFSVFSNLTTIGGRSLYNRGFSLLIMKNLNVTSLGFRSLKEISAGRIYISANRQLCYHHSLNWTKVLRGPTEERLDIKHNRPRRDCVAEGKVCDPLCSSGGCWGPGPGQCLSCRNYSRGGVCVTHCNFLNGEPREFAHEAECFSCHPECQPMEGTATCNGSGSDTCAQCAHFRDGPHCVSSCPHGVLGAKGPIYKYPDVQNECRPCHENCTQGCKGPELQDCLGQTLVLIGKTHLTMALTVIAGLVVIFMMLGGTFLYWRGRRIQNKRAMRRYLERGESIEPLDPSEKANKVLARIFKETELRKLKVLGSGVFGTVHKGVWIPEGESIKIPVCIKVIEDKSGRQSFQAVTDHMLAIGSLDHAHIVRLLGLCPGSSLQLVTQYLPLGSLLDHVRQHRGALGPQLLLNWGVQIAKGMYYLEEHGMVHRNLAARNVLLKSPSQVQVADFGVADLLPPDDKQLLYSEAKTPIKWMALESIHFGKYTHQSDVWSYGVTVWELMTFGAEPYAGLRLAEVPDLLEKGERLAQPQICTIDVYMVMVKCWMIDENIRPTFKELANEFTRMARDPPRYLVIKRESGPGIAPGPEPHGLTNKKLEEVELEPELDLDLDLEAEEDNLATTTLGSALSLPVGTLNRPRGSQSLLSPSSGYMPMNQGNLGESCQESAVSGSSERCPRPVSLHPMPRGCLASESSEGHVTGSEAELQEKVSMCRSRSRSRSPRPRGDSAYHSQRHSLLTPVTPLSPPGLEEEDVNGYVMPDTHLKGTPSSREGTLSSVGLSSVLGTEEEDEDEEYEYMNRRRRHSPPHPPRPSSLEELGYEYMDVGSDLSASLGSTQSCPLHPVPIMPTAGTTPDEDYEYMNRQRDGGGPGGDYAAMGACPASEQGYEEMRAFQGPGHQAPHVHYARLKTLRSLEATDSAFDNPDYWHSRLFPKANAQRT

Row | Substance | ratio of median binding fluorescence to the parental clone
1 | NRG1-MFc variant E8L (Fc fusion) | < 0.8
2 | NRG1-MFc variant H2E (Fc fusion) | < 0.8
3 | NRG1-MFc variant H2T (Fc fusion) | < 0.8
4 | NRG1-MFc variant K24G (Fc fusion) | < 0.8
5 | NRG1-MFc variant P29D (Fc fusion) | < 0.8
6 | NRG1-MFc variant P29L (Fc fusion) | < 0.8
7 | NRG1-MFc variant T41A (Fc fusion) | < 0.8
